The values that follow come from paper PMC10206189 (2023).

The test deals with T1, mouse Plexin-B1 (20–535)-6xHis (mouse, UniProt Q8CJH3 20-535).
T1 chain: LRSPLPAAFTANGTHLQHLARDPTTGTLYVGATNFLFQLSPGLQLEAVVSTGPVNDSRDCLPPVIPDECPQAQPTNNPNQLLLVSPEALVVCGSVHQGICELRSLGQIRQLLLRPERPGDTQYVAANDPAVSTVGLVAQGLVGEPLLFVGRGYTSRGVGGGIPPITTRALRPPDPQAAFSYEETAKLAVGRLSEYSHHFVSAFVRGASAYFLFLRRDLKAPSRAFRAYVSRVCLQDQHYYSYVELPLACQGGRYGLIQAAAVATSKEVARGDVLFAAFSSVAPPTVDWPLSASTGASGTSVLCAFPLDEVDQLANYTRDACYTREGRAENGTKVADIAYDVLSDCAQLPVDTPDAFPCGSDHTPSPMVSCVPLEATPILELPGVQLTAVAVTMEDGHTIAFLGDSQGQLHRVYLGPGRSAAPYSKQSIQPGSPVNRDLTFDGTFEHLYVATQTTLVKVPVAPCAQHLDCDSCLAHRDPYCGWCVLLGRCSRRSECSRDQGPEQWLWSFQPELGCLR
Briefly: BLI.

B1: VHH14-Fc (Fc fusion)
chain: QVQLQESGGGLVQAGGSLRLSCAASGFTLGYYAIGWFRQAPGKEREEVSCINASGGSTFYEDSVKGRFTISRDNAKNTVFLQMNRLKPEDTAVYYCAAACEVVAVGYWGQGTQVTVSA
Turning to B1, the koff (as a rule, the rate constant with which the complex falls apart) came out at 1.66e-05 s⁻¹.

B2: VHH15-Fc (Fc fusion)
chain: QVQLQESGGGLVQPGGSLRLSCAASGFRLDYYAIGWFRQAPGKEREGVLCISSSGGSINYADSVKGRFTISRDNAKNTVYLQMNSLKPEDTAVYYCGASSYNTQRAECYGMDYWGKGTQVTVSA
Take B2: the koff is 0.002 s⁻¹.
